How the values were obtained:
[1] = target: T1, HBV envelope antigen (HBs370-79, genotype A/D) peptide on HLA-A*02:01 (human); test: cytokine release
T1 peptide: SIVSPFIPLL

[2] = target: T2, HBV envelope antigen (HBs370-79, genotype C) peptide on HLA-A*02:01 (human); test: cytokine release
T2 peptide: NILNPFLPLL

[3] = target: T3, HBV envelope antigen (HBs370-79, genotype B) peptide on HLA-A*02:01 (human); test: cytokine release
T3 peptide: NILSPFMPLL

[4] = target: T4, HBc18-27-HLA-A201 pentamer (PE-conjugated HLA-A2 class I pentamer bearing the HBc18-27 epitope, Proimmune) (Hepatitis B virus; human); test: flow cytometry, pentamer staining of transduced lymphocytes; the filing puts the difference down to expression of the Vα3 chain
T4 construct: also called HLA-A2 pentamer; HBc18-HLA-A201 pentamer

[5] = target: T5, HBV core antigen (HBc18-27, genotype B/C; 27I) peptide on HLA-A*02:07 (human); test: T cell clone or line
T5 peptide: FLPSDFFPSI

[6] = target: T6, HBV core antigen (HBc18-27, genotype B/C; 27I) peptide on HLA-A*02:01 (human); test: T cell clone or line
T6 peptide: FLPSDFFPSI

[7] = target: T7, HBV core antigen (HBc18-27, genotype B/C; 27I) peptide on HLA-A*02:06 (human); test: T cell clone or line
T7 peptide: FLPSDFFPSI

B1: HBs370-79 TCR (TCR, V domains shown)
Valpha: QKEVEQNSGPLSVPEGAIASLNCTYSDRGSQSFFWYRQYSGKSPELIMFIYSNGDKEDGRFTAQLNKASQYVSLLIRDSQPSDSATYLCAVNLYAGNMLTFGGGTRLMVKP
Vbeta: GAGVSQSPRYKVAKRGQDVALRCDPISGHVSLFWYQQALGQGPEFLTYFQNEAQLDKSGLPSDRFFAERPEGSVSTLKIQRTQQEDSAVYLCASSSDFGNQPQHFGDGTRLSIL
binding result [1]: recognises | binding result [2]: recognises | binding result [3]: recognises

B2: HBc18-Opt-TCR (codon optimized HBc18-27 TCR, Vα3 / Vβ8.2) (TCR, V domains shown)
V domain 1: SQQGEEDPQALSIQEGENATMNCSYKTSINNLQWYRQNSGRGLVHLILIRSNEREKHSGRLRVTLDTSKKSSSLLITASRAADTASYFCATWLSGSARQLTFGSGTQLTVLP
V domain 2: DAGVIQSPRHEVTEMGQEVTLRCKPISGHDYLFWYRQTMMRGLELLIYFNNNVPIDDSGMPEDRFSAKMPNASFSTLKIQPSEPRDSAVYFCASSNRASSYNEQFFGPGTRLTVLE
notes: also called codon optimized TCR; HBc18-Opt-Vα3 and HBc18-Opt-Vβ8.2
fold frequency of pentamer positive cells against HBc18-WT-TCR [4]: 2 fold

B3: HBc18-27 TCR (TCR, V domains shown)
Valpha: SQQGEEDPQALSIQEGENATMNCSYKTSINNLQWYRQNSGRGLVHLILIRSNEREKHSGRLRVTLDTSKKSSSLLITASRAADTASYFCATWLSGSARQLTFGSGTQLTVLP
Vbeta: DAGVIQSPRHEVTEMGQEVTLRCKPISGHDYLFWYRQTMMRGLELLIYFNNNVPIDDSGMPEDRFSAKMPNASFSTLKIQPSEPRDSAVYFCASSNRASSYNEQFFGPGTRLTVL
peptide concentration still recognised [5]: ≤ 1 pM | peptide concentration still recognised [6]: ≤ 1 pM | peptide concentration still recognised [7]: ≤ 1 pM
